B1: CPEB3 Ribozyme (parent)
chain: GGGGGCCACAGCAGAAGCGUUCACGUCGCGGCCCCUGUCAGAUUCUGGUGAAUCUGCGAAUUCUGCUGU

Variants of: B1
Experiment: self-cleavage, relative activity (ratio to wild type); higher = more cleavage; co-transcriptional

Row | Variant | self-cleavage
1 | C27A C66G | 0.327
2 | C27A C66A | 0.334
3 | C27G C39U | 0.138
4 | U26C U49G | 1.01
5 | U26C U49C | 0.932
6 | U26G G56U | 0.814
7 | U26G G56A | 0.729
8 | U26G G56C | 0.356
9 | U26G G48U | 0.923
10 | C27G C35A | 0.124
11 | C27G C35U | 0.179
12 | C27G C35G | 0.171
13 | U26C A40G | 0.949
14 | U26C A40C | 0.455
15 | U26C A40U | 0.733
16 | C27A U44C | 0.354
17 | C27A U44A | 0.439
18 | C27A U44G | 0.295
19 | U26C C33A | 0.826
20 | U26C C33G | 0.474
21 | U26C C35G | 0.375
22 | U26C C35U | 0.964
23 | U26G G30U | 0.164
24 | U26G G30C | 0.284

Row | Variant | self-cleavage
25 | U26G C34G | 0.409
26 | U26G C34U | 0.95
27 | C27A C57A | 0.189
28 | C27A C57U | 0.173
29 | U26A U55C | 0.712
30 | U26A U55G | 0.44
31 | U26G U67G | 0.968
32 | U26G U67A | 0.854
33 | U26G U67C | 0.91
34 | U26C G50C | 1
35 | U26C G50U | 0.956
36 | C27A G47U | 0.738
37 | C27A G47C | 0.72
38 | C27A U36C | 0.261
39 | C27A U36G | 0.146
40 | U26C U62A | 0.832
41 | U26C U62C | 0.732
42 | U26G G68U | 0.968
43 | U26G G68C | 0.932
44 | U26G G68A | 1.01
45 | U26G G50C | 0.962
46 | U26G G50U | 0.928
47 | U26G G50A | 0.927
48 | U26G C35A | 0.184

Row | Variant | self-cleavage
49 | U26G C35G | 0.241
50 | U26C G48C | 0.988
51 | U26C G48A | 0.982
52 | C27A U64A | 0.286
53 | C27A U64G | 0.319
54 | C27A C33A | 0.288
55 | C27A C33U | 0.539
56 | C27A C33G | 0.224
57 | U26G C66G | 0.693
58 | C27A G41A | 0.196
59 | C27A G41C | 0.149
60 | U26C C54U | 1.03
61 | U26C C54G | 0.871
62 | U26C C54A | 0.92
63 | C27A A51U | 0.577
64 | U26G G41C | 0.561
65 | U26G G41A | 0.539
66 | C27G G31A | 0.174
67 | C27G C66A | 0.174
68 | C27G C66U | 0.156
69 | U26G C45G | 0.87
70 | U26G C45A | 0.951
71 | U26C U43G | 0.735
72 | U26G A51G | 0.787

Row | Variant | self-cleavage
73 | U26G A51C | 0.838
74 | U26G A51U | 0.871
75 | U26C G28U | 0.139
76 | U26C G28A | 0.108
77 | U26C A52U | 0.989
78 | U26C A52G | 1.01
79 | U26C A52C | 0.995
80 | U26G C54A | 0.708
81 | U26G C54U | 0.931
82 | U26G C54G | 0.694
83 | C27A U49G | 0.59
84 | C27A U49C | 0.702
85 | C27G G30C | 0.279
86 | C27G G30U | 0.149
87 | C27G G30A | 0.228
88 | U26C C32G | 0.365
89 | C27A U53A | 0.344
90 | C27A U53C | 0.213
91 | C27G A42G | 0.15
92 | C27G A42C | 0.177
93 | U26G C33A | 0.827
94 | U26G C33U | 0.833
95 | U26G C33G | 0.437
96 | C27A U43G | 0.226

Row | Variant | self-cleavage
97 | C27A U43A | 0.18
98 | C27G A60U | 0.181
99 | C27G A60G | 0.204
100 | C27G C54G | 0.169
101 | C27G C54U | 0.151
102 | C27G A52C | 0.191
103 | C27G A52U | 0.132
104 | C27G A52G | 0.24
105 | C27A A52C | 0.556
106 | C27A C45A | 0.504
107 | C27A C45G | 0.578
108 | U26G C29U | 0.318
109 | U26G C29G | 0.414
110 | U26A U67G | 0.858
111 | U26A U67C | 0.868
112 | U26C G68U | 1.01
113 | U26C G68A | 1.03
114 | C27A G58A | 0.377
115 | C27A G58U | 0.727
116 | C27A U46G | 0.725
117 | C27A U46A | 0.736
118 | C27A U69A | 0.843
119 | C27A U69G | 0.825
120 | C27A U69C | 0.955

Row | Variant | self-cleavage
121 | C27A C29G | 0.195
122 | U26C U38C | 0.925
123 | U26C U38A | 0.837
124 | U26C U38G | 0.188
125 | U26C A59U | 0.677
126 | U26C A59C | 0.59
127 | U26C A59G | 1.05
128 | U26G G58A | 0.557
129 | U26G G58U | 0.87
130 | U26C U46G | 0.893
131 | U26C U46C | 0.95
132 | U26C U46A | 1.02
133 | U26G U61G | 0.558
134 | U26C C29U | 0.135
135 | U26C C29G | 0.345
136 | U26C C29A | 0.414
137 | U26C G65C | 0.547
138 | U26C G65A | 0.713
139 | U26C A42U | 0.964
140 | U26C A42C | 1.01
141 | C27G C63G | 0.225
142 | C27G C63U | 0.209
143 | C27A U67C | 0.66
144 | C27A U67A | 0.685

Row | Variant | self-cleavage
145 | U26G U64C | 0.756
146 | U26G U64A | 0.692
147 | U26G G28C | 0.133
148 | U26G G31A | 0.555
149 | U26C C34G | 0.492
150 | C27G C32A | 0.201
151 | C27G C32G | 0.134
152 | C27G C32U | 0.207
153 | C27A U38A | 0.26
154 | C27A U38C | 0.324
155 | U26G G37A | 0.21
156 | U26G G37U | 0.185
157 | U26G U49C | 0.924
158 | U26G U49G | 0.907
159 | C27G G28C | 0.13
160 | C27G G28U | 0.154
161 | C27A G30C | 0.138
162 | C27A G30A | 0.176
163 | U26G C63A | 0.581
164 | U26G C63U | 0.893
165 | C27A G50U | 0.647
166 | C27A G50C | 0.493
167 | C27A G50A | 0.587

Source: the RNAGym collection of RNA variant scans (doi:10.7554/elife.80360)
